Experiment: label from the status in PepcDB records
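Also: failed if final PepcDB status was selected cloned or expressed and not failed if soluble or beyond.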

| Sequence | protein production |
| --- | --- |
| MPSLFSLYRKIFFGRKPGWDQQPLPYIKVTAPNVRVSEAKISQYAQVCGFDFDGKLLPPTYLYVMAFRLHAVIFTHDGITFPLLGMIHLKNRIQVYRPAAVDEVFALECALTTSRETDSGLEFEFVSKAFVGEELVWESLSTYLYRIETAGRRVRPPKALDMAWDSPQSWELGEDLGRRYAKASGDYNLIHLHPMLSKRFGFDRVLAHGMWSKARCLAELMPEIGERPFVVDVAFKLPLLMPAEVGFGYEKTEDKWVFELRDSKGRRPHLSGEVQL | failed |
| MSESTYPSVKDLTLEEKASLTSGGDSWHLQGVESKGIPGYMITDGPHGLRKSLASSTGETDLNNSVPATCFPPAAGLSSSWNPELIHKVGEAMAEECIQEKVAVILGPGVNIKRNPLGGRCFEYWSEDPYLAGHEAVGIVAGVQSKGVGTSLKHFAANNQETDRLRVDARISQRALREIYLPAFEHIVKTAQPWTIMCSYNRINGVHSAQNHWLLTDVLRDEWGFEGIVMSDWGADHDRVASLNAGLNLEMPPSYTDDQIVYAARDGRIAPAQLDRMAQGMIDLINKACAAMSIDGYRFDVDAHDEVAHQAAIESIVLLKNDDAILPLNADPAAARKIAVIGEFARTPRYQGGGSSHITPTKMTSFLDTLAERGIKADFAPGFTLDLEPADPALESEAVETAKNADVVLMFLGLPEAAESEGFDRDTLDMPAKQIALLEQVAAANQNVVVVLSNGSVVSVAPWAKNAKGILESWLLGQSGGPALADVIFGQVSPSGKLAQSIPLDINDDPSMLNWPGEEGHVDYGEGVFVGYRYYDTYGKSVDYPFGYGLSYATFEIADVAAAKTGANTATVTATVTATVTNTSDVDAAETVQVYVAPGKADVARPKHELKGFTKVFLKAGESKSVTIDLDERAFAYWSEKYNDWHVESGEYAIEVGVSSRDIADTVVVTLEGDGKSQPLTEWSTYGEWEADPFGAKIVAAVAAAGEAGELTKLPDNAMMRIFLNSMPINSLSTLLGEGGKKIAKFMVDEYAKLAK | failed |
| MDNLFYYMIIQNDRIQPIIVRQPQTVIIHSQPKLPITLDLPPQNIILKNEDPQPIIVRQSNPNIIIEKSQNDFYNHPNFHIGLHDKVNSMSDINNTNIKEQPIKDNMIEDMQNINNADTQFYYNNQNVINENNVLPTHYSYLNNGVFNKEHNYDPYNFTLYSNK | failed |
| ETDKTAISVREIADNTYIVLGTMTLNDFNEYFETDLESDNVDTIAGFYLTGVGTIPSQEEKEHFEVESNGKHLELINDKVKDGRVTKLKILVSE | failed |
| MDISGRDVETRLTLAREFMSGVDELPTVPDIVLRIAGKLNDPDVAIDEVADLLLQDQVLTARVVHLANSPLYSAARPISSIRDAVIYLGLDLLREAIFTCAIVDLFKTGKGPLNRSTLWAHSLGVARIAKLIAERTGFLNPVNVYVAGLLHDVGEVFINFFRGKEFSQVVTLVDEEKITFGQAEERLFGTSHCEVGFALAKRWSLNEFICDTILYHHDIEAVPYKQAAIVAMVAFADEYCTLRRLGFEGHKPVDSVRTLLENHPSWGVIRRSLGGSDFDEKLIVAELDSSIVEIRAAVDELFLL | failed |
| MNGFSQLEGLRGHPSVVRVIGHRGARGVMPENTLEGFAFTLAAGVRALEFDVVMTADGVPVVTHNHHLANAMTRDGQGHWLTGAERQVAEMTYAEIRALDVGGLDGRTVYGRRFPDQAFLTGIHVPRLGELLDLCAGYGDQAPYLLLELKSDPALMHDHAARAEMVAAVLADVRRYRMEPRTVMHSFDWALLGECRRQAPDLPTSYLSQLPENADDPGEDSAKPVGPDYDRMTESLPQAVASAGGQLWCPYFLDVTPELVAEAHDLGLIVLTWTVNEPEDIRRMATTGVDGIVTDYPGRTQRILIDMGLSWT | not failed |
| MTDRLERKLAIAANQDKADLLIKNGQIVDVFQLETFEGDVVIADGEIVAISDPGTYEAHEEVDAKGAFIAPAFIDGHVHIESSMVAPEQFAKVVVPHGVTTVIADPHEIANVAGVQGVEYMLDASEGIPLDVKMMVPSCVPATPFEHSGARLTAEEVAELFRDPRIFGLGEVMDYPAVLTRDQEMMAKLKAAHSEGRIVDGHGAGLDSVALNAYTAAGIGNDHEAVTPEEAKARLQRGMYLLIREGTAAKDFDALMKAITPMNSRRALFVTDDKHLDELVEEGSIDHHVRKAIQIGVNPLQAIQMASLNAAECFKLAKKGAIAPGFTADLLFIEDLQSLAITHVFKNGTCVAKNGKLIVPIRETVQPPQRLLESVNMKLVTKEQLELSLQSDEEAHLIQIQPGSIVTKHIREKVAVKDGVFIPSVARDQLKLVVAERHHKRGTVGVGIVKGFGLTKGAIATTVAHDSHNIVAVGTNDEDLLAAIKELENIQGGMTIVKDGKVLVSLPLTIGGLMSDQSYDVVCEQIKSVDAAIGALGFVGDFNPFLTLSFLALPVIPEIKLTDQGLFDVTSFSFIDQQVYAEETN | failed |
| MDSPKRGGPRVRPSFVFCTRTCFPTPPDRMSDSESADPHSPSPTGDGQDTEPRDADGHEVARRGDTEAMEGLLEQGMDPNHTNEHGHSLLMIAAYSDQPEMADLLIEHGADPNRSDPSGSTPLMGCCFKGLAEAAEVLIEAGADVNATGARGATALMYAATYGESALVDLLLEHGADPTTTNEQGQTAAEQAAAEGHEEIAERLRQATAGA | failed |
| MIGKRFFQTTSKKIAFAFDIDGVLFRGKKPIAGASDALKLLNRNKIPYILLTNGGGFSERARTEFISSKLDVDVSPLQIIQSHTPYKSLVNKYSRILAVGTPSVRGVAEGYGFQDVVHQTDIVRYNRDIAPFSGLSDEQVMEYSRDIPDLTTKKFDAVLVFNDPHDWAADIQIISDAINSENGMLNTLRNEKSGKPSIPIYFSNQDLLWANPYKLNRFGQGAFRLLVRRLYLELNGEPLQDYTLGKPTKLTYDFAHHVLIDWEKRLSGKIGQSVKQKLPLLGTKPSTSPFHAVFMVGDNPASDIIGAQNYGWNSCLVKTGVYNEGDDLKECKPTLIVNDVFDAVTKTLEKYA | not failed |
| MRNDLFNREKSRQLSLTPRTEKIEVKHVGKTDPGTVFVMNKNISTPYSCAMHLSEWYCSKSILALVDGQPWDMYKPLTKSCEIKFLTFKDPDPREVNKAYWRSCAMMLGCVIERAFKDDYVVSLLRAPEVPVIAGAFCYDVTLDKRLDEWMPTKENLRSFTKDAHALIYRDLPFETLDVDARVALEIFQHNKYKVDFIEEKASQNPERIVKLHRIGDFIDVSEGPLIPRTSVCFQYEVSAVHNLNPSQPNLIRRFQGLSLPTHLRAQFTIWDKLVGRSRKMVTEDEVRQTENTESTQ | failed |
| MSQSQLLQKLASRLPLGVCVVDEHYQIIYWNEFFTDRLPTAKSDTQENNLLTLFPEAAKFLQKKINSVFVLNNASFSYWEHRPHVFDFSSSRPITGEETAMYQNIEFFPLDIEDHQVKTVCLIVQDVTELASYYQAQKCLSEQLEQEHTALSLLNKKLEAAQNQLLQSEKMVAIGQLAAGVAHEINNPIGFVNSNLQSLQDYNNKLLKLLNFYQKLTHKIGSVPYFTLEQDMLKRYQFEFICSDLPDLIRESIEGLDRVAVIVKSLKSFSHVDSSEWQYANVIEGIENTLKIAANQIKYKAVVLRNFQDNLPELYCQPMQLNQVFLNLLVNAAQAIEERGEISIDVSASDAEFIIVIRDTGSGIAASDLRKIFEPFYTTKLVGTGTGLGLSLSYSIVQKHKGEIKVSSVLGEGTAFTVILPILSPEDVA | failed |
| MVPCWNHGNITRSKAEELLSRTGKDGSFLVRASESISRAYALCVLYRNCVYTYRILPNEDDKFTVQASEGVSMRFFTKLDQLIEFYKKENMGLVTHLQYPVPLEEEDTGDDPEEDTVESVVSPPELPPRNIPLTASSCEAKEVPFSNENPRATETSRPSLSETLFQRLQSMDTSGLPEEHLKAIQDYLSTQLAQDSEFVKTGSSSLPHLKKLTTLLCKELYGEVIRTLPSLESLQRLFDQQLSPGLRPRPQVKG | not failed |
| MSMSAQGKKAAESTTSTRPAKLDKQAYEAELKRLQAELVDMQQWVVETGARVVIIMEGRDAAGKGSAIKRMTQYLNPRTCRIEALPAPNSREQGQWYFQRYVEKLPTAGEIVIFDRSWYNRAGVERVMGFCTSQEYRRFLHQAPIFERLLVEDGIMLRKYWFSVSDEEQIARFKSRRNDPLRRWKLSPMDLQSITRWEDYSRAKDEMFVHTDIPSAPWYTVESEDKKRSRINVISHLLSTIPYEKIDRP | failed |
| MDTNYKMLYEKYEKLKNEFSTYQNFAETQIQRMNGKNTELEKKLDILTNVIEVSKYINSNISDDNLVPMINDMIIGILGVTYSTIYLVEDDEKLIVKASNVMDNYDIIVNPVFSTFSDNRPIVINSKEPLFKEFKNKLKVHSIIGVPITLRDNFRGYIIVEHTLYDFFSHGHIKFISSIANQIAIAIENSFLYKKVKESSIKDPFLGIYNRKHFFDMIEGKVAKDSRRSFAIVMLDIDHFKSFNDSYGHQFGDEVLIQTAKILEQSIGEKDEVARYGGEEIVLYLNDAQSKEKVFKTVDGIRASLSNNSVRHGGIEKRVTASFGISYYPQNGETVEKVVSVADAMLYEAKNSGRNKVVSSL | failed |
| MGVYPPSEDSFLIIEYASCSGKAIEIGCGTGIVSICFLKRGCDIEAVDISDLAVECAKDNASRNGLTLKVYRSDLFSGVSGTYDTILFNAPYIPVEGEDASWSGGRNLEVVSRFLGQAREHLSASGQIYIVLSDLTDNEGMFRMMGYDYFIIKKISFEFEAIVLYKLTLKALEHHHHHH | failed |
| MSQLPTLIADLALILICAGVMTLLFKKLKQPLVLGYVVAGFLASPHMPYTPSVMDTANIKTWADIGVIFLLFALGLEFSFKKIVKVGGSAIIAACTIIFCMILLGIGVGMGFGWHRMDSLFLGGMIAMSSTTIIYKAFDDLGLRKKQFTGLVLSILILEDILAIVLMVMLSTMAVSHNFEGTEMLESIGKLLFFLILWFVVGIYLIPEFLKRCRKLMGEETLLIVSLALCFGMVVMAANTGFSAAFGAFIMGSILAETIEAESIDRLVKPVKDLFGAIFFVSVGMMVDPAMIIEYAIPIIVITIAVILGQATFGTFGVILSGKPLKTAMQCGFSLTQIGEFAFIIASLGVSLHVTSDFLYPIVVAVSVITTFLTPYMIRLAEPASSFVDAHLPASWRKFLMRYSSGSQTVLNHENLWKKLLLAMVRITVVYSIVSISIIALSFRFVVPFFKENLPHFWASLLGAVFIILCISPFLRAIMVKKNHSVEFMTLWHDNRANRAPLVSTIVIRIMIAALFVIFVISGLFKASIGLIIGVAVLAVLLMVWSRRLKKQSILIERRFFQNLRSREVRAEYLGEKKPEYAGRLLSHDLHLADLEIPGESTWAGKTLMELNLGKKYGIHIASILRGKRRINIPGGSVRLFPMDKIQVIGTDEQLNVFSSAMQSGAKIDWEMYEKGEMTLKQFIIDADSVFLGKTIRESGIRDKYHCMIAGVEREDGTLMVPDVNAPFEEGDVVWVVGEKENVYQLVDQKNEKIQVK | failed |
| MTVNVYDLANELERGIRALPEYQALVQAKAKIDEDEEAKKLWTEFTEFQMKIQGLIQTGQAPTPEVQTEMQSFNQKIEANPLLKEYATAQQALGVYVNDIERIIFSPLQDIAK | not failed |
| MQRERTAESSLRVISKEKNSITVEMINYDNTLLRTLVEEILKDDQVDEARYYIKHPVIDNPQIYVRVKSGKPQSAIKRAVRKLSKLYEDLGTQFQKEFQRYESDHMIKAVE | not failed |
| FDKLGNSAAIQEMNREVEAAAKRTSPVFLTGEAGSPFETVARYFHKNGTPWVSPARVEYLIDMPMELLQKAEGGVLYVGDIAQYSRNIQTGITFIIGKAERCRVRVIASCSYAAGSDGISCEEKLAGLFSESVVRIPPLS | not failed |
| MKPEISIIVPIYNVEKYLSKCIDSILNQSFTNFELILVNDGSNDRSGIICDEYTLKDERIRVIHKKNGGVSSARNSGISLALGKYIGFVDPDDYIKEEMYEILYNLCKKYKTDISICKLGREINGTLINNEENGEIIELDNVNGLKELFKGILYRFSLCNKLFKRECFRGVIFPEGRIHEDLSTTYRLFANAKKSIYFDYVGYIYVKRENSILTTTYNEKRLQAFIGWNEILEFMINKYPMLEDNVVACFGYSCIDHSNYILNQVIGFNNKIRLLNFIRYEVKQRFSLLVKNKILINKLKLILILLMLNSRFLIISKYKGKGVYRKRIRI | failed |

From a protein production outcome set (Wang et al. 2014)
